Measurements as given in IntAct's records for PubMed 19513100.

Legend:
[1] = molecular target: rb_mouse Rb1 (UniProt P13405)
[2] = molecular target: fog1_human ZFPM1 (UniProt Q8IX07)
Chain of fog1_human ZFPM1 (Q8IX07 whole entry): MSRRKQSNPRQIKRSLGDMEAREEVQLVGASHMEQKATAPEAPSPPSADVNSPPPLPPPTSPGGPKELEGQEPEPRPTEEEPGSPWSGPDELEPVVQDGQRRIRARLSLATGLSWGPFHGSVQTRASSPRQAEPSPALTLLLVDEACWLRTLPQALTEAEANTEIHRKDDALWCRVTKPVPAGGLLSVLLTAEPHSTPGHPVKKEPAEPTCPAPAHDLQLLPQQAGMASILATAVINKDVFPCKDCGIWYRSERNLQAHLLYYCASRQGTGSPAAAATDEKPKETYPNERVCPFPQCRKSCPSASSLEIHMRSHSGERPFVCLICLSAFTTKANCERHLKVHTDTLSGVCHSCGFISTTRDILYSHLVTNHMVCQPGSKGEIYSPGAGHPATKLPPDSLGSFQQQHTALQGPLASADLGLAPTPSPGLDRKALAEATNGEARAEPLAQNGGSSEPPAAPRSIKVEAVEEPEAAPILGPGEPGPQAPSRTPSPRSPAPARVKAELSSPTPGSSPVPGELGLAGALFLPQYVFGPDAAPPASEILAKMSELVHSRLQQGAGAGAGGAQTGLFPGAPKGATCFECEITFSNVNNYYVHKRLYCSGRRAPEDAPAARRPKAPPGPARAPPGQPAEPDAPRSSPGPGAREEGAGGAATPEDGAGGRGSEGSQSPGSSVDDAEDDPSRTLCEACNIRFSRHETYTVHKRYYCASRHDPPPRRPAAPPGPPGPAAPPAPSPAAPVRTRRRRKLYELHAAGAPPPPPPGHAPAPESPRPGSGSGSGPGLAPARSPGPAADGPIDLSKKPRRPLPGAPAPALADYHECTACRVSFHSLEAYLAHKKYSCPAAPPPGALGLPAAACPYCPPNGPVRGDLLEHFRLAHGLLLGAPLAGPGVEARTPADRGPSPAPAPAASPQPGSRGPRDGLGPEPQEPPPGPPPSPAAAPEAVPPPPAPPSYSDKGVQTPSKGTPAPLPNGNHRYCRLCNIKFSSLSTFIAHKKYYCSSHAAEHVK

Chain of Erythroid transcription factor (Homo sapiens), P15976 V205G (P15976 whole entry V205G): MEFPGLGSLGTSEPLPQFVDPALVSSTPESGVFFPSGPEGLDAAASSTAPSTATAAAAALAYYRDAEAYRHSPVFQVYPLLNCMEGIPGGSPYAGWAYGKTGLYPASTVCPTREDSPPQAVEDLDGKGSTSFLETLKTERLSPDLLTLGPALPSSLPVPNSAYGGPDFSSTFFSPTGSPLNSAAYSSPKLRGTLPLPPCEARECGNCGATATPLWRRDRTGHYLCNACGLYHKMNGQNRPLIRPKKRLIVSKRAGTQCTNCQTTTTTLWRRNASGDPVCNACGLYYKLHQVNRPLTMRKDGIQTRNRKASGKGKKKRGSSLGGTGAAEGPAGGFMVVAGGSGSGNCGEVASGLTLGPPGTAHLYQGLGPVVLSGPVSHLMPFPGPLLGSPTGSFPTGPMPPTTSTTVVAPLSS
Chain of rb_mouse Rb1 (P13405 whole entry): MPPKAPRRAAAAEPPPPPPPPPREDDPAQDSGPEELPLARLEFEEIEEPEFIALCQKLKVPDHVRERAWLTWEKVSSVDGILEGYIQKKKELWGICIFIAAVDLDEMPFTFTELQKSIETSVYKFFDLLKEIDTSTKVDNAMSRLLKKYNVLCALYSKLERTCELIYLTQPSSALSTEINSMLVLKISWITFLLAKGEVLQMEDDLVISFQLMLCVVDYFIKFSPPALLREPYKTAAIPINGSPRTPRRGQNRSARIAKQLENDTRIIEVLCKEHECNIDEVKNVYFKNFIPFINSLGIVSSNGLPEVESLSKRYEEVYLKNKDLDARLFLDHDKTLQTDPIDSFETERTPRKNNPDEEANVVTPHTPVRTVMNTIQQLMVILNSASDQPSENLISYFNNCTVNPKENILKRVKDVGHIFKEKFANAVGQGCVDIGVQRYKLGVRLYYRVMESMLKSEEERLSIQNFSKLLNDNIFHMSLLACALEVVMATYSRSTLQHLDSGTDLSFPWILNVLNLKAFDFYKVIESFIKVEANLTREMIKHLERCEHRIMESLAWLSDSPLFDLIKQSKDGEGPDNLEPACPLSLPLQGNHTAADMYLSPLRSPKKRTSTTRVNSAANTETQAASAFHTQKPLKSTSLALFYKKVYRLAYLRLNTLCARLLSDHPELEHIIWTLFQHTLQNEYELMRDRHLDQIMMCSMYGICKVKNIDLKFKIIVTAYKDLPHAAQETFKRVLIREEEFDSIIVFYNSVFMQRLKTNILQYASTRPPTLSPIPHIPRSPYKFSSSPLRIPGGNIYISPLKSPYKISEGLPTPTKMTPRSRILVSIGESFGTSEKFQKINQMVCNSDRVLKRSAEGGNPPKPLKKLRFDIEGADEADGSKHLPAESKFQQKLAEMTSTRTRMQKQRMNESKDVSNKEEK
Chain of Erythroid transcription factor (Homo sapiens), P15976 C83G;E85K (P15976 whole entry C83G/E85K): as the sequence (P15976 whole entry V205G) above, with C83G, E85K, G205V counted along it

effect of a mutation on the interaction [1] | effect of a mutation on the interaction [2] | Substance
disrupting interaction | – | Erythroid transcription factor (Homo sapiens), P15976 C83G;E85K
– | disrupting interaction | Erythroid transcription factor (Homo sapiens), P15976 V205G
